Laboratory results published in patent US20250051407A1, “De novo designed sequence-specific DNA binding proteins” (University of Washington, priority 2023, published 2025).

How the values were obtained:
[1] = system: DBP57-TetR (synthetic construct); test: cell_activity; conditions: E. coli YFP NOT gate, 1 mM IPTG
[2] = system: DBP48-TetR (synthetic construct); test: cell_activity; conditions: E. coli YFP NOT gate, 1 mM IPTG
[3] = system: biotinylated dsDNA oligo (designed DNA target); test: Clonal yeast surface display binding to biotinylated dsDNA oligo
Description: For each set of designs, synthetic oligonucleotides (230 base pairs) encoding the 50-65-residue designed proteins were ordered in a single pool and cloned into a yeast surface-expression vector. Cells containing designs that bound each DNA target were enriched by several rounds of fluorescence-activated cell sorting (FACS) using fluorescently labeled target dsDNA oligos. The naive and sorted populations for each DNA target were deep sequenced, and the frequency of each design in the starting population and after each sort was determined. From this analysis, we identified 97 designs that were substantially enriched (>100×) in pools sorted with their intended dsDNA target compared to the naive library. […]
For yeast display characterization of individual designs, including competition assays, DNA sequences encoding the proteins of interest were purchased as Integrated DNA Technologies (IDT) E-Blocks™, transformed into yeast cells, and incubated in 96 well culture plates. […] For each individual sample, gating of the expression population was performed using the CytoFlow™ Gaussian Mixture Model and the ratio of SAPE channel intensity to FITC channel intensity (binding signal/expression signal) was calculated for all gated expression events of the sample.

[4] = system: biotinylated target dsDNA with non-biotinylated competitor dsDNA; test: Yeast display competition assay with base-substituted competitor dsDNA; type: binding
Description: We used a yeast display competition assay to characterize the DNA binding site specificity of a subset of the designs (FIG. 1A-E, left; FIG. 5). Addition of non-biotinylated competitor dsDNA to biotinylated target sequence reduced binding signal by flow cytometry (FIG. 1A-E, middle). […] For example, in DBP6 (FIG. 1A) R31 and R36 in the design model form bidentate hydrogen bonds with the guanines of base pair positions G12 and C9, respectively, while T32 forms a hydrogen bond with C10.
(§1) For yeast display characterization of individual designs, including competition assays, DNA sequences encoding the proteins of interest were purchased as Integrated DNA Technologies (IDT) E-Blocks™, transformed into yeast cells, and incubated in 96 well culture plates. Labeling with biotinylated dsDNA targets and SAPE/FITC was performed in a 96 well plate format. For yeast display competition assays, labeling was performed without avidity using 1 μM biotinylated dsDNA duplex oligos and an excess of 8 μM non-biotinylated competitor dsDNA duplex oligos. […] Flow cytometry analysis was performed with an Attune NxT™ flow cytometer with autosampler. Flow cytometry data analysis was performed using custom python code and the CytoFlow™ python package. For each individual sample, gating of the expression population was performed using the CytoFlow™ Gaussian Mixture Model and the ratio of SAPE channel intensity to FITC channel intensity (binding signal/expression signal) was calculated for all gated expression events of the sample.

[5] = system: 13 unique dsDNA targets; test: All-by-all yeast surface display screen of DBP design hits; type: binding
Experimental: And an all-by-all screen of DBP design hits to 13 unique dsDNA targets was performed (FIG. 4, table 2). […] To try to understand these observed binding preferences, each tested DNA sequence was threaded onto each design complex model at all possible base pair alignments, the alternative complex models were relaxed with Rosetta™, and the model with the most favorable Rosetta™ ΔΔG was selected.
Saccharomyces cerevisiae EBY100 strain cultures were grown in C-Trp-Ura medium supplemented with 2% (w/v) glucose. For induction of expression, yeast cells were centrifuged at 6,000 g for 1 min and resuspended in SGCAA medium supplemented with 0.2% (w/v) glucose at the cell density of 1×10^7 cells per ml and induced at 30° C. for 16-24 h. Cells were washed with PBSF (PBS with 1% (w/v) BSA) and labeled with biotinylated targets using two labeling methods: with-avidity and without-avidity labeling. For the with-avidity method, the cells were incubated with biotinylated target, together with anti-c-Myc fluorescein isothiocyanate (FITC, Miltenyi Biotech) and streptavidin-phycoerythrin (SAPE, ThermoFisher). The concentration of SAPE in the with-avidity method was used at one-quarter of the concentration of the biotinylated targets. For the without-avidity method, the cells were first incubated with biotinylated targets, washed and secondarily labeled with SAPE and FITC.
as §1

[6] = system: synTF-specific cis-regulatory elements (CRE) in HEK293T cells; test: Transcriptional activation by synTFs in HEK293T cells (ENGRAM); type: cell-based; conditions: DBP fused to GCN4 dimerization domain and VP64; HEK293T cells expressing PEmax; dependent on spacing between motifs
Description: Next, we investigated whether the DBPs can be used as activators in mammalian cells. A set of synthetic transcription factors (synTFs) were created by fusing the GCN4 dimerization domain and the VP64 activation domain to the C-termini of DBPs 9, 35opt, 48, 57, and 60 which recognize 3 unique motifs. The dimerization domain allows the DBPs to recognize a palindromic target sequence consisting of two binding motifs, improving the binding affinity to the DNA sequence (FIG. 2C). We created synTF specific cis-regulatory elements (CRE) with 4 repeats spaced by 6 bp to drive the expression of downstream genes, and used the ENGRAM (43) recording technology to measure the activity of the synTFs in HEK293 cells. In ENGRAM, each CRE drives the expression of a uniquely barcoded pegRNA, which upon expression is recorded into the DNA TAPE at the HEK3 locus by prime-editor (PEmax); the activity of individual synTFs can be measured as the abundance of the barcode on the DNA TAPE (FIG. 2C). We first tested 3 different spacings-1 bp, 3 bp, and 5 bp-between the palindromic binding motifs to maximize the recorder activity. 3 synTF specific recorders and 1 TCF-LEF-recorder (negative control) were mixed with ratio 2:2:2:1 and co-transfected with synTFs into the HEK293T cells expressing PEmax. Cells were harvested and analyzed 2 days post-transfection. After analyzing the barcode abundance on the DNA TAPE, we observed 3-5 fold activation for DBP9/DBP35 and DBP57/DBP60 (FIG. 2D).
HEK293T cells expressing PEmax™ were cultured in DMEM High glucose (GIBCO), supplemented with 10% Fetal Bovine Serum (Rocky Mountain Biologicals) and 1% penicillin-streptomycin (GIBCO). Cells were grown with 5% CO2 at 37° C. 1×10^5 cells were seeded on a 48-well plate a day before transfection. Enhancer plasmid and binder plasmid were mixed with a ratio of 2:1. Enhancer variants and background control were mixed with a ratio of 2:2:2:1. A total of 300 ng of plasmid were transfected using Lipofectamine™ 3000 (ThermoFisher, L3000015), following the manufacturer's protocol. Cells were harvested 2 days post-transfection. Genomic DNA was extracted based on the protocol described earlier (43). Briefly, cells were lysed using freshly prepared lysis buffer (10 mM Tris-HCl, pH 7.5; 0.05% SDS; 25 µg/ml protease (ThermoFisher)) for each well. The genomic DNA mixture was incubated at 50° C. for 1 h, followed by an 80° C. enzyme inactivation step for 30 min. The DNA TAPE was amplified from the genomic DNA directly for next generation sequencing. Recorded information was extracted via custom analysis code. Each enhancer has a unique barcode representing its activity. Transcription activation was measured as the fold change in the barcode abundance relative to the negative control barcode. All measurements were performed in triplicates.

[7] = system: synthetic promoter containing the designed DBP binding sites controlling YFP; test: Transcriptional repression assay (NOT gate, YFP) in E. coli; type: cell-based, Escherichia coli; conditions: IPTG induction (1 mM), flow cytometry
Description: We next tested the ability of the designed DBPs to function in cells to regulate transcription. We constructed candidate NOT gates (38) to assay transcriptional repression in Escherichia coli, where the input is a designed DBP under control of the IPTG-inducible PTac promoter and the output is yellow fluorescent protein (YFP) expression driven by a promoter incorporating each DBP's DNA binding site. […] To increase avidity and bulk, we fused the DBPs to the homodimerization domain of the TetR protein (39), using RFdiffusion (40) and ProteinMPNN sequence design to generate rigid linkers that orient the DBP domain of each dimer unit on a DNA target containing two palindromic binding sites. For DBPs 48, 69, and 57, we selected 96 TetR fusions for experimental characterization in the NOT gate circuit. Upon initial screening, we observed modest repression for several designs and selected two for further validation (one incorporating DBP48, the other DBP57) (FIG. 8). […]

Work on “TCTGGATAGTGTATCCAGATTGACATCTGGAAGTATATCCAGATAATGAGCACTTCC (double strand) [PDBP57 synthetic promoter]” yielded an activity (fold repression) [1] of 8.1.

Molecule “GGCGTCAGGTGGACGCAGATTGACAGCGTCAGGTGGACGCTTATAATGAGCACTTCC (double strand) [PDBP48 synthetic promoter]” has an activity (fold repression) [2] of 3.4.

B1: DBP35opt: optimized DBP35 combining R33N, K18V and P42Q; sequence matches Table 1 row SEQ ID NO: 50, DNA target B (protein)
chain: GFGRAVKEKRKELGLTQVEFAEKAGLSRRTIINIERGYIVPQKATKEKIAKALGTSVEELEQA
For B1, the “Detectable binding down to (dsDNA concentration)” value [3] was ~150 pM, the “Number of base positions of specificity” value [4] was 7 base positions and the Off-target binding ([5]; yeast display screen against the 13 DNA targets, versus original DBP35) was “strongly decreased off-target binding”. For the same molecule, the “Fold activation of synTFs measured as normalized barcode abundance in the DNA TAPE” value [6] was 3-5 fold.

B2: DBP57: designed DNA-binding protein, SEQ ID NO: 31, DNA target E (protein)
chain: MVLTPMERIGEFIKRARREAGLTQRELAELAGVGQSTVSRIEKGEKCSPELVEKILEALRKV
For B2, the “Number of the 13 tested DNA target sequences preferentially bound” value ([5]; 1 μM dsDNA with avidity, including designed target sequence) was “less than 3”, the “Binding specificity versus design models” value ([5]; all-by-all screen with Rosetta-predicted motifs) was “bound with specificity closely consistent with the design models” and the “Binding to initial design target” value ([5]; yeast surface display, 1 μM dsDNA with avidity) was “bound strongly”. The “Binding to alternate target sequence” value ([5]; yeast surface display, 1 μM dsDNA with avidity, alternate target H (DBP90), D (DBP48), C (DBP57)) was “bound strongly”, the “Fold repression of YFP by single DBP domains and tandem linked DBP domains” value [7] was “not observed” and the “Fold activation of synTFs measured as normalized barcode abundance in the DNA TAPE” value [6] was 3-5 fold.
